# Experimental data published in US20250277023A1 (published 2025).
# Residue numbers refer to the chain shown, from its start. Names and notes keep the numbering of the source.
# B1: R1086: TIGIT_VH_IL15RA (R35C)/TIGIT_VL_IL15 (E93C)/PD-L1-Fab (bispecific antibody)
# chain 1: QVQLVQSGAEVKKPGSSVKVSCKASGYSFTSYWMNWVRQAPGQGLEWIGMIRPSDSETRLNQMFKDRVTITVDKSTSTAYMELSSLRSEDTAVYYCAGIHDYGHGAYWGQGTLVTVSSGGGGSGGGGSGGGGSGGGGSGITCPPPMSVEHADIWVKSYSLYSRERYICNSGFKCKAGTSSLTECVLNKATNVAHWTTPSLKCIRDPALVHQRPAPPSTVTTAGVTPQPESLSPSGKEPAASSPSSNNTAATTAAIVPGSQLMPSKSPSTGTTEISSHESSHGTPSQTTAKNWELTASASHQPPGVYPQGHSDTTEPKSSDKTHTCPPCPAPELLGGPSVFLFPPKPKDTLMISRTPEVTCVVVDVSHEDPEVKFNWYVDGVEVHNAKTKPREEQYNSTYRVVSVLTVLHQDWLNGKEYKCKVSNKALPAPIEKTISKAKGQPREPQVYTLPPSREEMTKNQVSLTCRVKGFYPSDIAVEWESNGQPENNYKTTPPVLKSDGSFFLASKLTVDKSRWQQGNVFSCSVMHEALHNHYTQKSLSLSPGK
# chain 2: DIQMTQSPSSLSASVGDRVTITCRASENIYSNLAWYQQKPGKSPKLLVYAASHLPDGVPSRFSGSGSGTDYSLTISSLQPEDFATYYCQHFWGTPRTFGQGTKLEIKGGGGSGGGGSGGGGSGGGGSGNWVNVISDLKKIEDLIQSMHIDATLYTESDVHPSCKVTAMKCFLLELQVISLESGDASIHNTVQDLIILANNSLSSNGNVTESGCKECEELECKNIKEFLQSFVHIVQMFINTS
# heavy: QVQLQESGPGLVKPSETLSLTCAVYGDSITSGYWNWIRKPPGKGLEYIGYISYTGSTYQNPSLKSRITMSRDTSKNQYYLKLSSVTAADTAVYYCARSRAWIRTYFDYWGQGTLVTVSSASTKGPSVFPLAPSSKSTSGGTAALGCLVKDYFPEPVTVSWNSGALTSGVHTFPAVLQSSGLYSLSSVVTVPSSSLGTQTYICNVNHKPSNTKVDKRVEPKSCDKTHTCPPCPAPELLGGPSVFLFPPKPKDTLMISRTPEVTCVVVDVSHEDPEVKFNWYVDGVEVHNAKTKPREEQYNSTYRVVSVLTVLHQDWLNGKEYKCKVSNKALPAPIEKTISKAKGQPREPQVYTLPPSREEMTKNQVSLWCLVKGFYPSDIAVEWESNGQPENNYDTTPPVLDSDGSFFLYSDLTVDKSRWQQGNVFSCSVMHEALHNHYTQKSLSLSPGK
# light: DIQMTQSPSSLSASVGDRVTITCSVSSSISSSNLHWYQQKPGKAPKPWIYGTSNLASGVPSRFSGSGSGTDYTLTISSLQPEDFATYYCQQWSSYPLTFGQGTKLEIKRTVAAPSVFIFPPSDEQLKSGTASVVCLLNNFYPREAKVQWKVDNALQSGNSQESVTEQDSKDSTYSLSSTLTLSKADYEKHKVYACEVTHQGLSSPVTKSFNRGEC
# B2: R1081: TIGIT_VH (G44C)_IL15RA/TIGIT_VL(Q100C)_IL15/PD-L1-Fab (bispecific antibody)
# chain 1: B1 chain 1 with G44C, C174R
# chain 2: B1 chain 2 with Q100C, C221E
# heavy: B1 heavy
# light: B1 light
# B3: R1085: TIGIT_VH_IL15RA (P67C)/TIGIT_VL_IL15 (E90C)/PD-L1-Fab (bispecific antibody)
# chain 1: B1 chain 1 with C174R, P206C
# chain 2: B1 chain 2 with E218C, C221E
# heavy: B1 heavy
# light: B1 light
# B4: R1084: PD-L1_VH (G44C)_IL15RA/PD-L1_VL(Q101C)_IL15/TIGIT-Fab (bispecific antibody)
# chain 1: QVQLQESGPGLVKPSETLSLTCAVYGDSITSGYWNWIRKPPGKCLEYIGYISYTGSTYQNPSLKSRITMSRDTSKNQYYLKLSSVTAADTAVYYCARSRAWIRTYFDYWGQGTLVTVSSGGGGSGGGGSGGGGSGGGGSGITCPPPMSVEHADIWVKSYSLYSRERYICNSGFKRKAGTSSLTECVLNKATNVAHWTTPSLKCIRDPALVHQRPAPPSTVTTAGVTPQPESLSPSGKEPAASSPSSNNTAATTAAIVPGSQLMPSKSPSTGTTEISSHESSHGTPSQTTAKNWELTASASHQPPGVYPQGHSDTTEPKSSDKTHTCPPCPAPELLGGPSVFLFPPKPKDTLMISRTPEVTCVVVDVSHEDPEVKFNWYVDGVEVHNAKTKPREEQYNSTYRVVSVLTVLHQDWLNGKEYKCKVSNKALPAPIEKTISKAKGQPREPQVYTLPPSREEMTKNQVSLTCRVKGFYPSDIAVEWESNGQPENNYKTTPPVLKSDGSFFLASKLTVDKSRWQQGNVFSCSVMHEALHNHYTQKSLSLSPGK
# chain 2: DIQMTQSPSSLSASVGDRVTITCSVSSSISSSNLHWYQQKPGKAPKPWIYGTSNLASGVPSRFSGSGSGTDYTLTISSLQPEDFATYYCQQWSSYPLTFGCGTKLEIKGGGGSGGGGSGGGGSGGGGSGNWVNVISDLKKIEDLIQSMHIDATLYTESDVHPSCKVTAMKCFLLELQVISLESGDASIHNTVQDLIILANNSLSSNGNVTESGCKECEELEEKNIKEFLQSFVHIVQMFINTS
# heavy: QVQLVQSGAEVKKPGSSVKVSCKASGYSFTSYWMNWVRQAPGQGLEWIGMIRPSDSETRLNQMFKDRVTITVDKSTSTAYMELSSLRSEDTAVYYCAGIHDYGHGAYWGQGTLVTVSSASTKGPSVFPLAPSSKSTSGGTAALGCLVKDYFPEPVTVSWNSGALTSGVHTFPAVLQSSGLYSLSSVVTVPSSSLGTQTYICNVNHKPSNTKVDKRVEPKSCDKTHTCPPCPAPELLGGPSVFLFPPKPKDTLMISRTPEVTCVVVDVSHEDPEVKFNWYVDGVEVHNAKTKPREEQYNSTYRVVSVLTVLHQDWLNGKEYKCKVSNKALPAPIEKTISKAKGQPREPQVYTLPPSREEMTKNQVSLWCLVKGFYPSDIAVEWESNGQPENNYDTTPPVLDSDGSFFLYSDLTVDKSRWQQGNVFSCSVMHEALHNHYTQKSLSLSPGK
# light: DIQMTQSPSSLSASVGDRVTITCRASENIYSNLAWYQQKPGKSPKLLVYAASHLPDGVPSRFSGSGSGTDYSLTISSLQPEDFATYYCQHFWGTPRTFGQGTKLEIKRTVAAPSVFIFPPSDEQLKSGTASVVCLLNNFYPREAKVQWKVDNALQSGNSQESVTEQDSKDSTYSLSSTLTLSKADYEKHKVYACEVTHQGLSSPVTKSFNRGEC
# Target: PD-L1 (on CHO-PD-L1 cells) (UniProt Q9NZQ7 19-290)
# Sequence (Q9NZQ7 19-290): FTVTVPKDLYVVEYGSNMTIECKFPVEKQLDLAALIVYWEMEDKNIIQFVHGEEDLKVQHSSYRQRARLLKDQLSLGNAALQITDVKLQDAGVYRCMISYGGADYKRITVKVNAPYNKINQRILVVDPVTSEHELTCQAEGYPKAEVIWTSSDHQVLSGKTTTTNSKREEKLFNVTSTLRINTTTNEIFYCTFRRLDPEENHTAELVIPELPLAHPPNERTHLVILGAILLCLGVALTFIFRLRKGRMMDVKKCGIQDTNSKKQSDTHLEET
# Experiment: FACS binding; Fig. 24
row,EC50,Binder
1,2.02 nM,B1
2,2.37 nM,B2
3,3.2 nM,B3
4,5.85 nM,B4
